Measured values published in patent publication US20130236458A1 (AbbVie / Abbott, published 2013).

T1: Recombinant Human IL-17 (human, UniProt Q16552 20-155, limits assumed)
T1 sequence (looked up): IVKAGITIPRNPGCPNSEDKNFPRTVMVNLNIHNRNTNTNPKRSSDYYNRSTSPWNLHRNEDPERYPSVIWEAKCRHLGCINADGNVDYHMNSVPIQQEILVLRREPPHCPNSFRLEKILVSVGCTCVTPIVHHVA


Assays:
Recombinant Human IL-17 = biological target: T1, Recombinant Human IL-17; assay: cell-based or functional assay
Recombinant Human IL-13 = Recombinant Human IL-13 (human, UniProt P35225 35-146, limits assumed); assay: cell-based or functional assay
Recombinant Human IL-13, sequence (P35225 35-146 limits assumed): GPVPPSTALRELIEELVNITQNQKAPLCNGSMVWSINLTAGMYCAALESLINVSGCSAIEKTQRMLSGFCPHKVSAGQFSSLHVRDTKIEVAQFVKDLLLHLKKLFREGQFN

Binder	C-Terminal VD IL17 Neutralization Assay IC50 (Recombinant Human IL-17) [pM]	N-Terminal VD IL13 Neutralization Assay IC50 (Recombinant Human IL-13) [pM]	N-Terminal VD IL17 Neutralization Assay IC50 (Recombinant Human IL-17) [pM]	C-Terminal VD IL13 Neutralization Assay IC50 (Recombinant Human IL-13) [pM]
DVD2184 (bispecific antibody) VH: EVQLVQSGAEVKKPGASVKVSCKASGYTFTSYWMHWVRQAPGQGLEWIGNINPKGGSNIYNEKFQGRVTMTRDTSISTAYMELSRLRSDDTAVYYCARLDYFGDSFDLWGQGTTVTVSSASTKGPEVQLVQSGAEVKKPGSSVKVSCKASGYTFTDYEIHWVRQAPGQGLEWMGVNDPESGGTFYNQKFDGRVTLTADESTSTAYMELSSLRSEDTAVYYCTRYSKWDSFDGMDYWGQGTTVTVSS VL: DIQMTQSPSSLSASVGDRVTITCRASQGIRNYLNWYQQKPGKAPKLLIYYASNLEVGVPSRFSGSGSGTDYTLTISSLQPEDFATYYCQQDNRFPYTFGGGTKVEIKRTVAAPDIQMTQSPSSLSASVGDRVTITCRASSGIISYIDWFQQKPGKAPKRLIYATFDLASGVPSRFSGSGSGTDYTLTISSLQPEDFATYYCRQVGSYPETFGQGTKLEIKR	405	121	–	–
DVD2148 (bispecific antibody) VH: EVTLRESGPGLVKPTQTLTLTCTLYGFSLSTSDMGVDWIRQPPGKGLEWLAHIWWDDVKRYNPALKSRLTISKDTSKNQVVLKLTSVDPVDTATYYCARTVSSGYIYYAMDYWGQGTLVTVSSASTKGPEVQLVQSGAEVKKPGSSVKVSCKASGYTFTDYEIHWVRQAPGQGLEWMGVNDPESGGTFYNQKFDGRVTLTADESTSTAYMELSSLRSEDTAVYYCTRYSKWDSFDGMDYWGQGTTVTVSS VL: DIQMTQSPSSLSASVGDRVTISCRASQDIRNYLNWYQQKPGKAPKLLIFYTSKLHSGVPSRFSGSGSGTDYTLTISSLQPEDIATYYCQQGLTPPLTFGGGTKVEIKRTVAAPDIQMTQSPSSLSASVGDRVTITCRASSGIISYIDWFQQKPGKAPKRLIYATFDLASGVPSRFSGSGSGTDYTLTISSLQPEDFATYYCRQVGSYPETFGQGTKLEIKR	11.6	54	–	–
DVD2152 (bispecific antibody) VH: EVTLRESGPGLVKPTQTLTLTCTLYGFSLSTSDMGVDWIRQPPGKGLEWLAHIWWDDVKRYNPALKSRLTISKDTSKNQVVLKLTSVDPVDTATYYCARTVSSGYIYYAMDYWGQGTLVTVSSASTKGPSVFPLAPEVQLVQSGAEVKKPGSSVKVSCKASGYTFTDYEIHWVRQAPGQGLEWMGVNDPESGGTFYNQKFDGRVTLTADESTSTAYMELSSLRSEDTAVYYCTRYSKWDSFDGMDYWGQGTTVTVSS VL: DIQMTQSPSSLSASVGDRVTISCRASQDIRNYLNWYQQKPGKAPKLLIFYTSKLHSGVPSRFSGSGSGTDYTLTISSLQPEDIATYYCQQGLTPPLTFGGGTKVEIKRTVAAPDIQMTQSPSSLSASVGDRVTITCRASSGIISYIDWFQQKPGKAPKRLIYATFDLASGVPSRFSGSGSGTDYTLTISSLQPEDFATYYCRQVGSYPETFGQGTKLEIKR	6.9	112	–	–
DVD2150 (bispecific antibody) VH: EVTLRESGPGLVKPTQTLTLTCTLYGFSLSTSDMGVDWIRQPPGKGLEWLAHIWWDDVKRYNPALKSRLTISKDTSKNQVVLKLTSVDPVDTATYYCARTVSSGYIYYAMDYWGQGTLVTVSSASTKGPEVQLVQSGAEVKKPGSSVKVSCKASGYTFTDYEIHWVRQAPGQGLEWMGVNDPESGGTFYNQKFDGRVTLTADESTSTAYMELSSLRSEDTAVYYCTRYSKWDSFDGMDYWGQGTTVTVSS VL: DIQMTQSPSSLSASVGDRVTISCRASQDIRNYLNWYQQKPGKAPKLLIFYTSKLHSGVPSRFSGSGSGTDYTLTISSLQPEDIATYYCQQGLTPPLTFGGGTKVEIKRTVAAPSVFIFPPDIQMTQSPSSLSASVGDRVTITCRASSGIISYIDWFQQKPGKAPKRLIYATFDLASGVPSRFSGSGSGTDYTLTISSLQPEDFATYYCRQVGSYPETFGQGTKLEIKR	4	99	–	–
DVD2170 (bispecific antibody) VH: EVQLVQSGAEVKKPGASVKVSCKASGYTFTTYGVSWVRQAPGQGLEWMGEIYPGNYNTYYNEKFRGRVTMTTDTSTSTAYMELRSLRSDDTAVYYCARWRTSYFSDYGYFDYWGQGTTVTVSSASTKGPSVFPLAPEVQLVQSGAEVKKPGSSVKVSCKASGYTFTDYEIHWVRQAPGQGLEWMGVNDPESGGTFYNQKFDGRVTLTADESTSTAYMELSSLRSEDTAVYYCTRYSKWDSFDGMDYWGQGTTVTVSS VL: DVVMTQSPLSLPVTLGQPASISCRSSQSLVHSHGNTYLHWYQQRPGQSPRLLIYTVSNRFSGVPDRFSGSGSGTDFTLKISRVEAEDVGVYYCSQSTHVPYTFGGGTKVEIKRTVAAPDIQMTQSPSSLSASVGDRVTITCRASSGIISYIDWFQQKPGKAPKRLIYATFDLASGVPSRFSGSGSGTDYTLTISSLQPEDFATYYCRQVGSYPETFGQGTKLEIKR	5.3	106	–	–
DVD2176 (bispecific antibody) VH: EVQLVQSGAEVKKPGASVKVSCKASGYTFTTYGVSWVRQAPGQGLEWMGEIYPGNYNTYYNEKFRGRVTMTTDTSTSTAYMELRSLRSDDTAVYYCARWRTSYFSDYGYFDYWGQGTTVTVSSASTKGPSVFPLAPEVQLVQSGAEVKKPGSSVKVSCKASGGSFGGYGIGWVRQAPGQGLEWMGGITPFFGFADYAQKFQGRVTITADESTTTAYMELSGLTSDDTAVYYCARDPNEFWNGYYSTHDFDSWGQGTTVTVSS VL: DVVMTQSPLSLPVTLGQPASISCRSSQSLVHSHGNTYLHWYQQRPGQSPRLLIYTVSNRFSGVPDRFSGSGSGTDFTLKISRVEAEDVGVYYCSQSTHVPYTFGGGTKVEIKRTVAAPEIVLTQSPDFQSVTPKEKVTITCRASQDIGSELHWYQQKPDQPPKLLIKYASHSTSGVPSRFSGSGSGTDFTLTINGLEAEDAGTYYCHQTDSLPYTFGPGTKVDIKR	116	106	–	–

Second part, the binder after the results:

C-Terminal VD IL17 Neutralization Assay IC50 (Recombinant Human IL-17) [pM]	N-Terminal VD IL13 Neutralization Assay IC50 (Recombinant Human IL-13) [pM]	N-Terminal VD IL17 Neutralization Assay IC50 (Recombinant Human IL-17) [pM]	C-Terminal VD IL13 Neutralization Assay IC50 (Recombinant Human IL-13) [pM]	Binder
–	–	2.8	1430	DVD2149 (bispecific antibody) VH: EVQLVQSGAEVKKPGSSVKVSCKASGYTFTDYEIHWVRQAPGQGLEWMGVNDPESGGTFYNQKFDGRVTLTADESTSTAYMELSSLRSEDTAVYYCTRYSKWDSFDGMDYWGQGTTVTVSSASTKGPEVTLRESGPGLVKPTQTLTLTCTLYGFSLSTSDMGVDWIRQPPGKGLEWLAHIWWDDVKRYNPALKSRLTISKDTSKNQVVLKLTSVDPVDTATYYCARTVSSGYIYYAMDYWGQGTLVTVSS VL: DIQMTQSPSSLSASVGDRVTITCRASSGIISYIDWFQQKPGKAPKRLIYATFDLASGVPSRFSGSGSGTDYTLTISSLQPEDFATYYCRQVGSYPETFGQGTKLEIKRTVAAPDIQMTQSPSSLSASVGDRVTISCRASQDIRNYLNWYQQKPGKAPKLLIFYTSKLHSGVPSRFSGSGSGTDYTLTISSLQPEDIATYYCQQGLTPPLTFGGGTKVEIKR
–	–	17.9	526	DVD2151 (bispecific antibody) VH: EVQLVQSGAEVKKPGSSVKVSCKASGYTFTDYEIHWVRQAPGQGLEWMGVNDPESGGTFYNQKFDGRVTLTADESTSTAYMELSSLRSEDTAVYYCTRYSKWDSFDGMDYWGQGTTVTVSSASTKGPEVTLRESGPGLVKPTQTLTLTCTLYGFSLSTSDMGVDWIRQPPGKGLEWLAHIWWDDVKRYNPALKSRLTISKDTSKNQVVLKLTSVDPVDTATYYCARTVSSGYIYYAMDYWGQGTLVTVSS VL: DIQMTQSPSSLSASVGDRVTITCRASSGIISYIDWFQQKPGKAPKRLIYATFDLASGVPSRFSGSGSGTDYTLTISSLQPEDFATYYCRQVGSYPETFGQGTKLEIKRTVAAPSVFIFPPDIQMTQSPSSLSASVGDRVTISCRASQDIRNYLNWYQQKPGKAPKLLIFYTSKLHSGVPSRFSGSGSGTDYTLTISSLQPEDIATYYCQQGLTPPLTFGGGTKVEIKR
691	88	–	–	DVD2178 (bispecific antibody) VH: EVQLVQSGAEVKKPGASVKVSCKASGYTFTTYGVSWVRQAPGQGLEWMGEIYPGNYNTYYNEKFRGRVTMTTDTSTSTAYMELRSLRSDDTAVYYCARWRTSYFSDYGYFDYWGQGTTVTVSSASTKGPEVQLVQSGAEVKKPGESVKISCKASGGSFRSYGISWVRQAPGQGLEWMGGITHFFGITDYAQKFQGRVTITADESTTTAYMELSGLTSDDTAVYYCAREPNDFWNGYYDTHDFDSWGQGTTVTVSS VL: DVVMTQSPLSLPVTLGQPASISCRSSQSLVHSHGNTYLHWYQQRPGQSPRLLIYTVSNRFSGVPDRFSGSGSGTDFTLKISRVEAEDVGVYYCSQSTHVPYTFGGGTKVEIKRTVAAPEIVLTQSPDFQSVTPKEKVTITCRASQNIGSELHWYQQKPDQSPKLLIKYASHSISGVPSRFSGSGSGTDFTLTINGLEAEDAATYYCHQSDTLPHTFGQGTKVDIKR
266	77	–	–	DVD2182 (bispecific antibody) VH: EVQLVQSGAEVKKPGASVKVSCKASGYTFTTYGVSWVRQAPGQGLEWMGEIYPGNYNTYYNEKFRGRVTMTTDTSTSTAYMELRSLRSDDTAVYYCARWRTSYFSDYGYFDYWGQGTTVTVSSASTKGPSVFPLAPEVQLVQSGAEVKKPGESVKISCKASGGSFRSYGISWVRQAPGQGLEWMGGITHFFGITDYAQKFQGRVTITADESTTTAYMELSGLTSDDTAVYYCAREPNDFWNGYYDTHDFDSWGQGTTVTVSS VL: DVVMTQSPLSLPVTLGQPASISCRSSQSLVHSHGNTYLHWYQQRPGQSPRLLIYTVSNRFSGVPDRFSGSGSGTDFTLKISRVEAEDVGVYYCSQSTHVPYTFGGGTKVEIKRTVAAPEIVLTQSPDFQSVTPKEKVTITCRASQNIGSELHWYQQKPDQSPKLLIKYASHSISGVPSRFSGSGSGTDFTLTINGLEAEDAATYYCHQSDTLPHTFGQGTKVDIKR
56.7	91	–	–	DVD2180 (bispecific antibody) VH: EVQLVQSGAEVKKPGASVKVSCKASGYTFTTYGVSWVRQAPGQGLEWMGEIYPGNYNTYYNEKFRGRVTMTTDTSTSTAYMELRSLRSDDTAVYYCARWRTSYFSDYGYFDYWGQGTTVTVSSASTKGPEVQLVQSGAEVKKPGESVKISCKASGGSFRSYGISWVRQAPGQGLEWMGGITHFFGITDYAQKFQGRVTITADESTTTAYMELSGLTSDDTAVYYCAREPNDFWNGYYDTHDFDSWGQGTTVTVSS VL: DVVMTQSPLSLPVTLGQPASISCRSSQSLVHSHGNTYLHWYQQRPGQSPRLLIYTVSNRFSGVPDRFSGSGSGTDFTLKISRVEAEDVGVYYCSQSTHVPYTFGGGTKVEIKRTVAAPSVFIFPPEIVLTQSPDFQSVTPKEKVTITCRASQNIGSELHWYQQKPDQSPKLLIKYASHSISGVPSRFSGSGSGTDFTLTINGLEAEDAATYYCHQSDTLPHTFGQGTKVDIKR
